Data: PMC9855357, “Different Forms of Disorder in NMDA-Sensitive Glutamate Receptor Cytoplasmic Domains Are Associated with Differences in Condensate Formation” (Biomolecules, 2022)

Molecular target: T1, Full-length PSD-95 (post synaptic density protein of 95 kDa) (Rattus norvegicus, UniProt P31016 1-724)
T1 construct: PSD-95, Rattus norvegicus, full length
Assay: co-sedimentation; ternary mixture 1:1:1 of PSD-95, CC-PBM and CTD2A or CTD2B, 20 µM each, 20 mM tris-HCl, 150 mM NaCl, pH 7.4, 25 °C for 5 min, 13,200 x g for 1 min; supernatant and pellet on SDS-PAGE, Coomassie
Details: both partners purified

T1 sequence (P31016 whole entry): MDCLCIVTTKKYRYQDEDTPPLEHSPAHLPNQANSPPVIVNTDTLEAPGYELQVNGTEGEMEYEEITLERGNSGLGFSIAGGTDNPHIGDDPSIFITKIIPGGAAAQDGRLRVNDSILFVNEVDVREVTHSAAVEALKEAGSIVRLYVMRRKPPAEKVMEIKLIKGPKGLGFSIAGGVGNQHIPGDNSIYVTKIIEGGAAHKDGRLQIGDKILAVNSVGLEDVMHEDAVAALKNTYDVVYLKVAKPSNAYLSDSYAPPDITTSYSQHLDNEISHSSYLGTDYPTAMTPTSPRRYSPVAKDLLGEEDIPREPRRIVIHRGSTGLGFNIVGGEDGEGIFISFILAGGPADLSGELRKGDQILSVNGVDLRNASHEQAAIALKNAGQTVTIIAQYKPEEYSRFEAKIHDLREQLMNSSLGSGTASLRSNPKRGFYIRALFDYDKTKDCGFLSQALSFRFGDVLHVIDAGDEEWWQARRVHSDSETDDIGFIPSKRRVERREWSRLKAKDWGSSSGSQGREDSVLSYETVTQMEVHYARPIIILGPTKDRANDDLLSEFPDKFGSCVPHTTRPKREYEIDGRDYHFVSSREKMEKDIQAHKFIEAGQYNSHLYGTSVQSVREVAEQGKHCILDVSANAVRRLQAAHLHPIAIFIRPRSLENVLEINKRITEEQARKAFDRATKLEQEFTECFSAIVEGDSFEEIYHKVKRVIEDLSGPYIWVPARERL

binding result: binds
B1: C-terminal domain 2 (CTD2) of GluN2B (residues 1259–1482) (domain or fragment, Rattus norvegicus, UniProt Q00960 1259-1482, looked up)
chain: SLQELDQPAAPVAVTSNASSTKYPQSPTNSKAQKKNRNKLRRQHSYDTFVDLQKEEAALAPRSVSLKDKGRFMDGSPYAHMFEMPAGESSFANKSSVPTAGHHHNNPGSGYMLSKSLYPDRVTQNPFIPTFGDDQCLLHGSKSYFFRQPTVAGASKTRPDFRALVTNKPVVVTLHGAVPGRFQKDICIGNQSNPCVPNNKNPRAFNGSSNGHVYEKLSSIESDV
notes: GluN2B subunit of the NMDA receptor, Rattus norvegicus, C-terminal domain 2, residues 1259-1482; Expressed from pPROEX HTB; the His tag was removed with TEV protease; also called CTD2B; GluN2B CTD2; not shown: His6, N-terminal, cleaved
